Laboratory results published in IntAct's records for PubMed 28712572.

Target: gbrap_human GABARAP (UniProt O95166)
Sequence (O95166 whole entry): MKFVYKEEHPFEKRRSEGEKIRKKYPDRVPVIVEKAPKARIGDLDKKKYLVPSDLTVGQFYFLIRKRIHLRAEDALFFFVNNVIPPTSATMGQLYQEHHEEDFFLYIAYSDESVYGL

Substance	effect of a mutation on the interaction
Pericentriolar material 1 protein (Homo sapiens), Q15154 K1957Y	with no effect
Pericentriolar material 1 protein (Homo sapiens), Q15154 K1965A	with no effect
Pericentriolar material 1 protein (Homo sapiens), Q15154 K1965C	with no effect
Pericentriolar material 1 protein (Homo sapiens), Q15154 K1965D	with no effect
Pericentriolar material 1 protein (Homo sapiens), Q15154 K1965I	with no effect
Pericentriolar material 1 protein (Homo sapiens), Q15154 K1965L	with no effect
Pericentriolar material 1 protein (Homo sapiens), Q15154 K1965M	with no effect
Pericentriolar material 1 protein (Homo sapiens), Q15154 K1965N	with no effect
Pericentriolar material 1 protein (Homo sapiens), Q15154 K1965Q	with no effect
Pericentriolar material 1 protein (Homo sapiens), Q15154 K1965T	with no effect
Pericentriolar material 1 protein (Homo sapiens), Q15154 K1965V	with no effect
Pericentriolar material 1 protein (Homo sapiens), Q15154 K1965W	with no effect
Pericentriolar material 1 protein (Homo sapiens), Q15154 K1972A	with no effect
Pericentriolar material 1 protein (Homo sapiens), Q15154 K1972C	with no effect
Pericentriolar material 1 protein (Homo sapiens), Q15154 K1972G	with no effect
Pericentriolar material 1 protein (Homo sapiens), Q15154 K1972H	with no effect
Pericentriolar material 1 protein (Homo sapiens), Q15154 K1972I	with no effect
Pericentriolar material 1 protein (Homo sapiens), Q15154 K1972L	with no effect
Pericentriolar material 1 protein (Homo sapiens), Q15154 K1972M	with no effect
Pericentriolar material 1 protein (Homo sapiens), Q15154 K1972N	with no effect
Pericentriolar material 1 protein (Homo sapiens), Q15154 K1972Q	with no effect
Pericentriolar material 1 protein (Homo sapiens), Q15154 K1972R	with no effect
Pericentriolar material 1 protein (Homo sapiens), Q15154 K1972T	with no effect

Substance	effect of a mutation on the interaction
Pericentriolar material 1 protein (Homo sapiens), Q15154 K1972Y	with no effect
Pericentriolar material 1 protein (Homo sapiens), Q15154 L1969C	with no effect
Pericentriolar material 1 protein (Homo sapiens), Q15154 L1969D	with no effect
Pericentriolar material 1 protein (Homo sapiens), Q15154 L1969E	with no effect
Pericentriolar material 1 protein (Homo sapiens), Q15154 L1969G	with no effect
Pericentriolar material 1 protein (Homo sapiens), Q15154 L1969H	with no effect
Pericentriolar material 1 protein (Homo sapiens), Q15154 L1969I	with no effect
Pericentriolar material 1 protein (Homo sapiens), Q15154 L1969M	with no effect
Pericentriolar material 1 protein (Homo sapiens), Q15154 L1969N	with no effect
Pericentriolar material 1 protein (Homo sapiens), Q15154 L1969Q	with no effect
Pericentriolar material 1 protein (Homo sapiens), Q15154 L1969R	with no effect
Pericentriolar material 1 protein (Homo sapiens), Q15154 L1969T	disrupting interaction strength
Pericentriolar material 1 protein (Homo sapiens), Q15154 L1969W	with no effect
Pericentriolar material 1 protein (Homo sapiens), Q15154 L1969Y	with no effect
Pericentriolar material 1 protein (Homo sapiens), Q15154 L1971A	with no effect
Pericentriolar material 1 protein (Homo sapiens), Q15154 L1971D	with no effect
Pericentriolar material 1 protein (Homo sapiens), Q15154 L1971E	with no effect
Pericentriolar material 1 protein (Homo sapiens), Q15154 L1971F	with no effect
Pericentriolar material 1 protein (Homo sapiens), Q15154 L1971H	with no effect
Pericentriolar material 1 protein (Homo sapiens), Q15154 L1971K	with no effect
Pericentriolar material 1 protein (Homo sapiens), Q15154 L1971N	with no effect
Pericentriolar material 1 protein (Homo sapiens), Q15154 L1971P	with no effect

Other lines, results leading:

effect of a mutation on the interaction	Substance
with no effect	Pericentriolar material 1 protein (Homo sapiens), Q15154 K1965E
with no effect	Pericentriolar material 1 protein (Homo sapiens), Q15154 K1965F
disrupting interaction strength	Pericentriolar material 1 protein (Homo sapiens), Q15154 K1965G
with no effect	Pericentriolar material 1 protein (Homo sapiens), Q15154 K1965H
disrupting interaction strength	Pericentriolar material 1 protein (Homo sapiens), Q15154 K1965P
with no effect	Pericentriolar material 1 protein (Homo sapiens), Q15154 K1965R
with no effect	Pericentriolar material 1 protein (Homo sapiens), Q15154 K1965S
with no effect	Pericentriolar material 1 protein (Homo sapiens), Q15154 K1965Y
with no effect	Pericentriolar material 1 protein (Homo sapiens), Q15154 K1972D
with no effect	Pericentriolar material 1 protein (Homo sapiens), Q15154 K1972E
with no effect	Pericentriolar material 1 protein (Homo sapiens), Q15154 K1972F
with no effect	Pericentriolar material 1 protein (Homo sapiens), Q15154 K1972P
with no effect	Pericentriolar material 1 protein (Homo sapiens), Q15154 K1972S
with no effect	Pericentriolar material 1 protein (Homo sapiens), Q15154 K1972V
with no effect	Pericentriolar material 1 protein (Homo sapiens), Q15154 K1972W
with no effect	Pericentriolar material 1 protein (Homo sapiens), Q15154 L1969A
with no effect	Pericentriolar material 1 protein (Homo sapiens), Q15154 L1969F
with no effect	Pericentriolar material 1 protein (Homo sapiens), Q15154 L1969K
with no effect	Pericentriolar material 1 protein (Homo sapiens), Q15154 L1969P
with no effect	Pericentriolar material 1 protein (Homo sapiens), Q15154 L1969S
with no effect	Pericentriolar material 1 protein (Homo sapiens), Q15154 L1969V
with no effect	Pericentriolar material 1 protein (Homo sapiens), Q15154 L1971C
with no effect	Pericentriolar material 1 protein (Homo sapiens), Q15154 L1971G
with no effect	Pericentriolar material 1 protein (Homo sapiens), Q15154 L1971I
with no effect	Pericentriolar material 1 protein (Homo sapiens), Q15154 L1971M
